The target in experiment [1] is T1, CD25 (R&D systems cat. #223-2A/CF) (UniProt P01589 22-213, limits assumed).
T1 construct: Bought soluble protein
T1 sequence (looked up): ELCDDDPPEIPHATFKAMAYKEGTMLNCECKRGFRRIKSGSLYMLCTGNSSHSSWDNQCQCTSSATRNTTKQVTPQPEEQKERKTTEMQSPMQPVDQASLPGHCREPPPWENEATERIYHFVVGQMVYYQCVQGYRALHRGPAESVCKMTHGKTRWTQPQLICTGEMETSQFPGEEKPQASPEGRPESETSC
The experiment can be described thus: SPR (Biacore). (In general: Surface plasmon resonance follows binding to a sensor surface in real time, without labels.)
Procedure: (§1) Binding was measured by injection of two-fold serial dilutions of CD25 (0 nM to 50 nM; R&D systems) in buffer at 25° C. with a flow rate of 25-30 μL/min for 2 min followed by a dissociation phase of 4-5 min. Association rates (kₒₙ) and dissociation rates (koff) were calculated using a simple one-to-one Langmuir binding model (BIAcore Evaluation Software version 3.2). The equilibrium dissociation constant (Kd) was calculated as the ratio of koff/kₒₙ).

The target of experiment [2] is T1, CD25 (R&D systems cat. #223-2A/CF). The experiment can be described thus: Biacore (SPR); antibody captured on Protein A, CD25 injected.
Procedure: as §1
Experiment [3] concerns the target T2, TNFα (UniProt P01375 77-233). The experiment can be described thus: SPR (Biacore), TNFα on CM5 chip, Fab injected; mean of two runs ± SD.
Procedure: (§2) For kinetic analysis of anti-TNFα antibodies, TNFα was coupled to an activated CM5 biosensor chip using standard NHS-EDC chemistry by injecting 200 nM TNFα at a flow rate of 2 μL/min for 10 min. […] For subsequent cycles, the chip was regenerated using pH4.0 acetate buffer. Association rates (kₒₙ) and dissociation rates (koff) were calculated using a simple one-to-one Langmuir binding model (BIAcore Evaluation Software version 3.2). The equilibrium dissociation constant (Kd) was calculated as the ratio of koff/kₒₙ.
Experiment [4] has as its target T2, TNFα. Put plainly: SPR (Biacore), TNFα on CM5 chip, Fab injected.
Procedure: as §2
A further experiment concerns the target VEGF (UniProt P15692-4 27-191, limits assumed). Put plainly: Biacore (SPR); Fab injected over immobilized VEGF.
Experiment [5] deals with T1, CD25 (R&D systems cat. #223-2A/CF). Put plainly: Biacore (SPR); antibody captured on Protein A, CD25 injected. The source holds these as a separate data set.
Procedure: as §1

Residue numbers refer to the chain shown, from its start. Names and notes keep the numbering of the source. Read-outs that look alike come from different tables or passages of the source.

The values that follow come from US20100004431A1 (Xencor, published 2010).

Chain of VEGF (P15692 other isoform, or with tags, fused parts or gaps limits assumed): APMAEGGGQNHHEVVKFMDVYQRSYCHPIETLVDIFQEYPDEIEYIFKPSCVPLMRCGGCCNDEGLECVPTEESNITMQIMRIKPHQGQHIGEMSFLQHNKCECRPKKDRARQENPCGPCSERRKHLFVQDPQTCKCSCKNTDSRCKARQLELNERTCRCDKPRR
T2 sequence (P01375 77-233 limits assumed): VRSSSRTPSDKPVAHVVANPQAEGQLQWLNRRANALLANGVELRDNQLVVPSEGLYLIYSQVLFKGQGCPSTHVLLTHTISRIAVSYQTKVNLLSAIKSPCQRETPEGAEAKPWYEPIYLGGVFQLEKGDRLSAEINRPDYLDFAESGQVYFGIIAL
Procedure for VEGF: For kinetic analysis of anti-VEGF antibodies, VEGF was coupled to an activated CM5 biosensor chip using standard NHS-EDC chemistry by injecting 200 nM VEGF at a flow rate of 2 μL/min for 10 min. […] Association rates (kₒₙ) and dissociation rates (koff) were calculated using a simple one-to-one Langmuir binding model (BIAcore Evaluation Software version 3.2). The equilibrium dissociation constant (Kd) was calculated as the ratio of koff/kₒₙ.

B1: anti-CD25 H1.12L1.48 (antibody, IgG1, V domains shown)
VH: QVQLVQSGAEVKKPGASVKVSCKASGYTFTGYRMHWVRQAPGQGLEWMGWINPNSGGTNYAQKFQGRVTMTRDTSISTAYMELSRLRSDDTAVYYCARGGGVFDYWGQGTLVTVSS
VL: EIVLTQSPATLSLSPGERATLSCRASQSVSYMHWYQQKPGQAPRLLIYTTSNRATGIPARFSGSGSGTDFTLTISSLEPEDFAVYYCHQRSTYPLTFGSGTKLEIK
notes: IgG1 format
A word on the Kd: it is a measure of binding affinity in units of concentration. The low end stands for tighter binding, the high end for weaker binding. By koff is commonly meant a measure of how fast the partners let go of each other. A low value points to a long-lived complex. The term kon denotes the second-order rate constant of association. A higher kon goes with fast association. As for B1, in experiment [1], the “fold tighter binding than anti-CD25 H1L1” value came to 5.9 fold. In experiment [2], the “Fold change in Kd vs. H0L0” value was determined as 1.7 fold, the Kd is 0.15 nM, the koff amounted to 0.00012 s⁻¹ and the association rate constant (kon) is 800000 M⁻¹ s⁻¹.

B2: anti-CD25 H1.14L1.20 (antibody, IgG1, V domains shown)
VH: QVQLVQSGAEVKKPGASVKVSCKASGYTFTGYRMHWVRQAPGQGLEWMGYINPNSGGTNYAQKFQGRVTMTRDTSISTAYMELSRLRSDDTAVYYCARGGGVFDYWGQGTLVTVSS
VL: B1 VL with M32L
notes: IgG1 format
On to B2, for which, in experiment [1], the “fold tighter binding than anti-CD25 H1L1” value worked out at 1.8 fold. In experiment [2], the “Fold change in Kd vs. H0L0” value is -1.9 fold, binding was characterised by a dissociation constant (Kd) of 0.49 nM, the koff amounted to 0.00029 s⁻¹ and the kon stood at 580000 M⁻¹ s⁻¹.

B3: Anti-TNFα H1.101L1.33 (Fab, V domains shown)
VH: EVQLVESGGGLVQPGGSLKLSCAASGFIFSNHWMNWVRQASGKGLEWVGEIRSKAINYATHYAESVKGRFTISRDDSKSTAYLQMNSLKTEDTAVYYCSRNYYGSTYDYWGQGTLVTVSS
VL: EIVLTQSPDFQSVTPKEKVTITCRASQFIGSSLHWYQQKPDQSPKLLIKYASESFSGVPSRFSGSGSGTDFTLTINSLEAEDAATYYCQQSHSWPFTFGSGTKLEIK
notes: Fab format
In the experiment with TNFα [3], B3 came in with a Kd of 3.9 nM, a koff of 0.000874 s⁻¹ and a kon of 223000 M⁻¹ s⁻¹. Besides, in the experiment with TNFα [4], the “fold difference in affinity against the chimeric antibody anti-TNFα H0L0” value (shortened to “fold difference in affinity”) was no more than 3 fold.

B4: Anti-TNFα H1L1 (Fab, V domains shown)
VH: B3 VH with A55S, Y58S, T80I, A81V
VL: B3 VL with E1D, V3L, I29V, L33I, F55M, V58I
notes: Fab format, purified by Ni-NTA chromatography; also called framework optimized anti-TNFα H1L1
In the experiment with TNFα [3], B4 showed a Kd of 1.9 nM, a koff of 0.00116 s⁻¹ and a kon of 605000 M⁻¹ s⁻¹.

B5: Anti-TNFα H1.67L1.33 (Fab, V domains shown)
VH: B3 VH with I28T, N57S, E64A, S79N
VL: B3 VL
notes: Fab format
In the experiment with TNFα [3], B5 displayed a Kd of 3.8 nM, a koff of 0.000776 s⁻¹ and a kon of 200000 M⁻¹ s⁻¹. The “fold difference in affinity” value with TNFα [4] is no more than 3 fold.

B6: Anti-TNFα H1.45L1.33 (Fab, V domains shown)
VH: B3 VH with T80I, A81V
VL: B3 VL
notes: Fab format
Regarding B6, in the experiment with TNFα [3], binding was characterised by a dissociation constant (Kd) of 1.8 nM, the koff turned out to be 0.00087 s⁻¹ and the kon was 489000 M⁻¹ s⁻¹. In addition, the “fold difference in affinity” value with TNFα [4] was no more than 3 fold.

B7: anti-VEGF H0L0 (Fab, V domains shown)
VH: EIQLVQSGPELKQPGETVRISCKASGYTFTNYGMNWVKQAPGKGLKWMGWINTYTGEPTYAADFKRRFTFSLETSASTAYLQISNLKNDDTATYFCAKYPHYYGSSHWYFDVWGAGTTVTVSS
VL: DIQMTQTTSSLSASLGDRVIISCSASQDISNYLNWYQQKPDGTVKVLIYFTSSLHSGVPSRFSGSGSGTDYSLTISNLEPEDIATYYCQQYSTVPWTFGGGTKLEIK
notes: also called anti-VEGF H0L0 (murine Fv); murine A4.6.1 Fv
With B7, in the experiment with VEGF, the Kd is 1.4 nM, the koff was 0.00017 s⁻¹ and the kon was determined as 134000 M⁻¹ s⁻¹.

B8: anti-CD25 H1.12L1 (antibody, IgG1, V domains shown)
VH: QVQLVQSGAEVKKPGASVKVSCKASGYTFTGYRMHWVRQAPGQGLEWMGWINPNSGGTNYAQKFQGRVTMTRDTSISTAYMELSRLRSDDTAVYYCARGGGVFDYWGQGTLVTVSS
VL: QIVLTQSPATLSLSPGERATLSCRASSSISYMHWFQQKPGQSPQLLIYTTSNLASGVPARFSGSGSGTDYTLTISSLQPEDFAVYYCHQRSTYPLTFGSGTKLEIK
notes: IgG1 format
As to B8, in experiment [1], the “fold tighter binding than anti-CD25 H1L1” value was determined as 8 fold. Besides, in experiment [2], the “Fold change in Kd vs. H0L0” value was found to be 2.3 fold, the Kd was determined as 0.11 nM, the koff turned out to be 0.00012 s⁻¹ and the kon came to 1.1e+06 M⁻¹ s⁻¹.

B9: anti-CD25 H1.22L1 (antibody, IgG1, V domains shown)
VH: QVQLVQSGAEVKKPGASVKVSCKASGYTFTSYRMHWVRQAPGQGLEWMGWINPNSGGTNYAQKFQGRVTITRDTSISTAYMELSRLRSDDTAVYYCARGGGVFDYWGQGTLVTVSS
VL: B8 VL
notes: IgG1 format
Consider B9, for which the “fold tighter binding than anti-CD25 H1L1” value in experiment [1] was 4.9 fold. In experiment [2], the “Fold change in Kd vs. H0L0” value was determined as 1.5 fold; the affinity, expressed as Kd, was 0.18 nM; the off-rate constant (koff) turned out to be 0.00017 s⁻¹; the kon was determined as 980000 M⁻¹ s⁻¹.

B10: anti-CD25 H1L1.7 (antibody, V domains shown)
VH: B9 VH with W50Y, N54S, S55T, G57Y, N59E, A61N, R72A, T74K
VL: B8 VL with Q78E
notes: Single variant in the anti-CD25 H1L1 background; also called VL Q79E single variant
Take B10: in experiment [5], the “Fold change in Kd vs. H1L1” value is 1.2 fold, the Kd was 0.28 nM, the koff was 0.00054 s⁻¹ and the kon was found to be 2e+06 M⁻¹ s⁻¹.

B11: anti-CD25 H1L1.13 (antibody, V domains shown)
VH: B9 VH with W50Y, N54S, S55T, G57Y, N59E, A61N, R72A, T74K
VL: B8 VL with V57I
notes: Single variant in the anti-CD25 H1L1 background; also called VL V58I single variant
B11: in experiment [5], the “Fold change in Kd vs. H1L1” value is -1.1 fold, the Kd was found to be 0.35 nM, the koff was 0.0006 s⁻¹ and the kon worked out at 1.7e+06 M⁻¹ s⁻¹.

B12: anti-CD25 H1L1.6 (antibody, V domains shown)
VH: B9 VH with W50Y, N54S, S55T, G57Y, N59E, A61N, R72A, T74K
VL: B8 VL with Q44R
notes: Single variant in the anti-CD25 H1L1 background; also called VL Q45R single variant
For B12, in experiment [5], the “Fold change in Kd vs. H1L1” value worked out at 1 fold, binding was put at a Kd of 0.32 nM, the koff is 0.00057 s⁻¹ and the kon was 1.8e+06 M⁻¹ s⁻¹.

B13: anti-CD25 H1L1.9 (antibody, V domains shown)
VH: B9 VH with W50Y, N54S, S55T, G57Y, N59E, A61N, R72A, T74K
VL: B8 VL with S42A
notes: Single variant in the anti-CD25 H1L1 background; also called VL S43A single variant
With B13, in experiment [5], the “Fold change in Kd vs. H1L1” value amounted to 1 fold, the Kd amounted to 0.31 nM, the koff turned out to be 0.00058 s⁻¹ and the kon came to 1.9e+06 M⁻¹ s⁻¹.

B14: anti-CD25 H1L1.16 (antibody, V domains shown)
VH: B9 VH with W50Y, N54S, S55T, G57Y, N59E, A61N, R72A, T74K
VL: B8 VL with F35Y
notes: Single variant in the anti-CD25 H1L1 background; also called VL F36Y single variant
On to B14, for which, in experiment [5], the “Fold change in Kd vs. H1L1” value was determined as 1.2 fold, the Kd came out at 0.26 nM, the dissociation rate constant (koff) turned out to be 0.00042 s⁻¹ and the association rate constant (kon) worked out at 1.6e+06 M⁻¹ s⁻¹.

B15: anti-CD25 H1L1.14 (antibody, V domains shown)
VH: B9 VH with W50Y, N54S, S55T, G57Y, N59E, A61N, R72A, T74K
VL: B8 VL with Y70F
notes: Single variant in the anti-CD25 H1L1 background; also called VL Y71F single variant
Consider B15, for which, in experiment [5], the “Fold change in Kd vs. H1L1” value was 1.2 fold, the Kd turned out to be 0.27 nM, the koff amounted to 0.00048 s⁻¹ and the kon came out at 1.8e+06 M⁻¹ s⁻¹.

B16: anti-CD25 H1.23L1 (antibody, IgG1, V domains shown)
VH: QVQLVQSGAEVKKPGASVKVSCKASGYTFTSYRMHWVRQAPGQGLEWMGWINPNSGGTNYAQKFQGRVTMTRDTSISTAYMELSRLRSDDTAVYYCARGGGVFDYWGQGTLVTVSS
VL: B8 VL
notes: IgG1 format
Regarding B16, the “fold tighter binding than anti-CD25 H1L1” value in experiment [1] came out at 4.4 fold. In experiment [2], the “Fold change in Kd vs. H0L0” value was found to be 1.3 fold, binding was put at a Kd of 0.2 nM, the koff stood at 0.00019 s⁻¹ and the on-rate (kon) came to 950000 M⁻¹ s⁻¹.

B17: anti-CD25 H1.14L1 (antibody, IgG1, V domains shown)
VH: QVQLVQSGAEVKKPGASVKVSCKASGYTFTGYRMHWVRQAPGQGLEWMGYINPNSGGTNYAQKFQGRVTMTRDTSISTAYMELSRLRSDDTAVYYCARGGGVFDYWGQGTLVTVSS
VL: B8 VL
notes: IgG1 format
For B17, the “fold tighter binding than anti-CD25 H1L1” value in experiment [1] was 2.4 fold. In experiment [2], the “Fold change in Kd vs. H0L0” value is -1.4 fold; the affinity, expressed as Kd, was 0.36 nM; the koff turned out to be 0.00028 s⁻¹; the kon is 770000 M⁻¹ s⁻¹.
